Key:
[1] = biological target: T1, hEMP2-GFP (Homo sapiens, UniProt P54851)
T1 construct: epithelial membrane protein 2 (EMP2), human, fused to GFP; also called human EMP2-GFP; pCDH-EMP2-GFP; source: HEK293T, transfected, in lysate; A549, transfected, in cells; stably overexpressed (lentivirus) in A549, NCI-H520 and LLC cells

[2] = biological target: T2, Purified EMP2 protein (human, UniProt P54851 1-167); assay: SPR
T2 chain: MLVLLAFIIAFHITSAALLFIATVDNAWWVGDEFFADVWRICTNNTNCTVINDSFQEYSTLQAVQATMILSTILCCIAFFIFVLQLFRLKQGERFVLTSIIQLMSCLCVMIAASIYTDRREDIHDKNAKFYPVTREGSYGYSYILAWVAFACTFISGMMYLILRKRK

[3] = biological target: T1, hEMP2-GFP; assay: immunostaining of cells or tissue; immunofluorescence of A549 cells transfected with hEMP2-GFP, stained with FK002; colocalization quantified; details: one partner purified
[4] = biological target: T3, epithelial membrane protein 2 (EMP2), endogenous in NCI-H226 cells (Homo sapiens, UniProt P54851); assay: affinity purification with mass spectrometry; FK002 antibody incubated with NCI-H226 whole-cell lysate; immunoprecipitate silver stained, qualitative mass spectrometry; details: one partner purified
T3 construct: epithelial membrane protein 2 (EMP2), human, endogenous in NCI-H226 lung squamous carcinoma cells; On live cells in the flow cytometry; in whole-cell lysate in the immunoprecipitation; also called human EMP2; source: endogenous, NCI-H226 whole-cell lysate; endogenous, on NCI-H226 cells

[5] = biological target: T4, Peptide 4. KFYPVTREGS (129-138aa) (Homo sapiens); assay: far-Western, overlay or dot blot; dot blot: 2.5 µL of each sample spotted on nitrocellulose (legend: 1 μg/spot), probed with FK002 antibody and HRP-conjugated mouse secondary antibody; details: both partners purified
T4 construct: human EMP2 residues 129-138; source: synthetic peptide (GenScript)
T4 chain: KFYPVTREGS

[6] = biological target: T2, Purified EMP2 protein; assay: SPR; Biacore 8K; EMP2 protein (approximately 12,000 RU) amine coupled; FK002Ab injected at 8 concentrations (0.02-1 μM), 20 μL/min, 100 s association, 180 s dissociation; PBS pH 7.2-7.4 with 1% dimethyl sulfoxide

Binder	EMP2 left on the cell surface, flow cytometry of EMP2-overexpressing NCI-H520 and NCI-A549 cells with or without FK002-exatecan (100 nM) for 48 h [1]	koff [2]	binding result [3]	binding result [4]	binding result [5]	Kd [6]
FK002-exatecan (antibody, V domains shown, exatecan conjugated by the T1000 (Mc-VA-PABC(PSAR1o)) linker to the fully reduced antibody; DAR approximately 8 per antibody; residues not stated | exatecan conjugated by the T1000 (Mc-VA-PABC(PSAR1o)) linker to the fully reduced antibody; DAR approximately 8 per antibody; residues not stated) VH: DVQLQESGPGLVKPSQSLSLTCSVTGYSITSGYYWNWIRQFPGNKLEWMGYIRYDGRNNYNPSLKNRISITRDTSKNQFFLKLNSVTTEDTATYYCARDFDYWGQGTTLTVSS VL: DIVLTQSPASLAVSLGQRATISCRASESVDTYGNSFMHWYQQKPGQPPKLLIYRASNLESGIPARFSGSGSRTDFTLTINPVEADDVATYYCHQSNEDPDTFGGGTKLEIKR	< 35%	–	–	–	–	–
FK002 antibody (mouse mAb) (antibody, V domains shown, V region of the printed chimeric heavy chain; mouse IgG heavy constant region; V region of the printed chimeric light chain; mouse light constant region; Flow cytometry, immunofluorescence, immunoblot and dot blot used the mouse mAb (anti-mouse secondary antibodies); also called FK002Ab; FK002 mAb; source: hybridoma, mouse ascites (from Abmart)) VH: DVQLQESGPGLVKPSQSLSLTCSVTGYSITSGYYWNWIRQFPGNKLEWMGYIRYDGRNNYNPSLKNRISITRDTSKNQFFLKLNSVTTEDTATYYCARDFDYWGQGTTLTVSS VL: DIVLTQSPASLAVSLGQRATISCRASESVDTYGNSFMHWYQQKPGQPPKLLIYRASNLESGIPARFSGSGSRTDFTLTINPVEADDVATYYCHQSNEDPDTFGGGTKLEIK	–	0.00328 s⁻¹	binds	binds	binds	40.3 nM
